The values that follow are results of earlier work, collected in publication PMC6959264.

For data set [1], the target named is Asp96 (UniProt position 109, PLLLLDLALLV).
The target in data set [2] is Asp85 (UniProt position 98, WARYADWLFTT).
In data set [3] the target is Asp212 (UniProt position 225, LFMVLDVSAKV).
The target in data set [4] is Asp74 (UniProt position 74, WARYIDWVITT). As to conditions: original (unphotolyzed, dark) state implied.

For the substance “Bacteriorhodopsin (BR) (Halobacterium salinarum)”, the results for the pKa in data set [1], in data set [2] and in data set [3] were greater than 12.0, 2.6 and less than 2.5, respectively.
On to “Rubrobacter xylanophilus rhodopsin (RxR) (Rubrobacter xylanophilus (DSM 9941))”, for which the pKa (in general, the pH at which an ionisable group is half protonated) in data set [4] is given as 1.3.
